This note sets out measurements from patent US20250228955A1 (ALBERT EINSTEIN COLLEGE OF MEDICINE, published 2025).

The target in experiment [1] is T1, recombinant Strep-tagged SARS-CoV-2 trimeric spike (SARS-CoV-2, UniProt P0DTC2 14-1208).
Experiment [2] addresses T2, human epidermal growth factor receptor (EGFR) (human, UniProt P00533 25-645).
Experiment [3] has as its target T1, recombinant Strep-tagged SARS-CoV-2 …. This is another data set of the same source.
For experiment [4], the target named is T2, human epidermal growth factor receptor …. Kind of experiment: biolayer interferometry. On the technique in general: In BLI a coated tip is dipped into the sample, and binding shifts an interference pattern.
The target in experiment [5] is T1, recombinant Strep-tagged SARS-CoV-2 …. The source holds these as a separate data set.
The target is the same in experiment [6]. This is another data set of the same source.

The term Kd denotes a measure of binding affinity in units of concentration. As a reminder, the koff is a measure of how fast the partners let go of each other. The term kon denotes a measure of how fast the partners come together. One may read the EC50 (read off the curve) as the concentration that produces a half-maximal response.

Where two headings read alike, the source gives them in different places.

B1: ODIN-8 (VHH-72.58 with UL-CDR3 from 60H05 bovine IgG in FR2 loop) (bispecific antibody, V domains shown)
VH: MGWFRQNKLKSCPDGYTSGVECRFRGYTCANDGCWRVCSFTTCSGWMPASDTYRREFVATISWSGGSTYYTDSVKGRFTISRDNAKNTVYLQMNSLKPDDTAVYYCAAAGLGTVVSEWDYDYDYWGQGTQVTVSS
Take B1: in experiment [1], the Kd was 76.4 nM, the koff came to 0.012 s⁻¹ and the kon turned out to be 158000 M⁻¹ s⁻¹. For the same molecule, in experiment [2], the Kd stood at 11.4 nM, the koff stood at 0.00103 s⁻¹ and the kon is 90500 M⁻¹ s⁻¹.

B2: VHH-72 (SARS-CoV-2 spike VHH, soluble recombinant) (VHH)
VHH: QVQLQESGGGLVQAGGSLRLSCAASGRTFSEYAMGWFRQAPGKEREFVATISWSGGSTYYTDSVKGRFTISRDNAKNTVYLQMNSLKPDDTAVYYCAAAGLGTVVSEWDYDYDYWGQGTQVTVSS
notes: also called parental VHH-72; VHH 72.58
On to B2, for which, in experiment [3], the equilibrium dissociation constant (Kd) turned out to be 460 nM, the koff stood at 0.0364 s⁻¹ and the association rate constant (kon) amounted to 79200 M⁻¹ s⁻¹. Moreover, the binding result in experiment [4] is reported as “no binding”.

B3: VHH-72-A56R fusion (VHH-72 fused to vaccinia virus (VACV) A56R for rVACV display) (VHH)
VHH: QVQLQESGGGLVQAGGSLRLSCAASGRTFSEYAMGWFRQAPGKEREFVATISWSGGSTYYTDSVKGRFTISRDNAKNTVYLQMNSLKPDDTAVYYCAAAGLGTVVSEWDYDYDYWGQGTQVTVSS
For B3, the “EC50 (read off the curve)” value in experiment [5] was around 0.07 µg/mL.

B4: ODIN-1-A56R fusion (ODIN-1 fused to vaccinia virus (VACV) A56R for rVACV display) (bispecific antibody, V domains shown)
VH: MGWFRQTNKKECPEDYTYNPRCPQQYGWSDCDCMGDRFGGYCRQDGCSNYIHRSTREFVATISWSGGSTYYTDSVKGRFTISRDNAKNTVYLQMNSLKPDDTAVYYCAAAGLGTVVSEWDYDYDYWGQGTQVTVSS
Regarding B4, the “EC50 (read off the curve)” value in experiment [6] is around 0.2 µg/mL; in experiment [5] it was around 0.06 µg/mL.
